# Results from patent publication US20110070185A1 (Janssen / Centocor, published 2011).
# B1: P18 (peptide)
# peptide: LKNKLKDLGH
# notes: synthetic peptide; also called peptide 18
# B2: P2 (peptide)
# peptide: LLPGRTVLV
# notes: synthetic peptide; also called peptide 2
# B3: P4 (peptide)
# peptide: RSLFLLYAL
# notes: synthetic peptide; also called peptide 4; RSLFLLYAL
# B4: P24 (peptide)
# peptide: LKIHAREIFD
# notes: synthetic peptide; also called peptide 24
# B5: P19 (peptide)
# peptide: NLKAALENLGAL
# notes: synthetic peptide; also called peptide 19; NLKAALENLGAL
# B6: P3-6 (peptide)
# peptide: SLVLNL
# notes: synthetic truncated peptide; also called SLVLNL
# B7: P13-4 (peptide)
# peptide: LPGMTKV
# notes: synthetic truncated peptide; also called LPGMTKV
# B8: P13-15 (peptide)
# peptide: DLPGMTK
# notes: synthetic truncated peptide; also called DLPGMTK
# B9: P3-5 (peptide)
# peptide: SLVLNLL
# notes: synthetic truncated peptide; also called SLVLNLL
# B10: P13-10 (peptide)
# peptide: TLVDLP
# notes: synthetic truncated peptide; also called TLVDLP
# B11: P14-10 (peptide)
# peptide: TLIDLP
# notes: synthetic truncated peptide; also called TLIDLP
# B12: P3-3 (peptide)
# peptide: LNLLEL
# notes: synthetic truncated peptide; also called LNLLEL
# B13: P3-8 (peptide)
# peptide: LVLNLLE
# notes: synthetic truncated peptide; also called LVLNLLE
# B14: P14-4 (peptide)
# peptide: LPGITRV
# notes: synthetic truncated peptide; also called LPGITRV
# B15: P13-9 (peptide)
# peptide: TLVDLPG
# notes: synthetic truncated peptide; also called TLVDLPG
# B16: P14-9 (peptide)
# peptide: TLIDLPG
# notes: synthetic truncated peptide; also called TLIDLPG
# B17: P13-14 (peptide)
# peptide: VDLPGMT
# notes: synthetic truncated peptide; also called VDLPGMT
# B18: P13-5 (peptide)
# peptide: PGMTKV
# notes: synthetic truncated peptide; also called PGMTKV
# B19: P3-7 (peptide)
# peptide: SLVLNLL
# notes: as for B9
# B20: P14-17 (peptide)
# peptide: DLPGITR
# notes: synthetic truncated peptide; also called DLPGITR
# B21: P14-5 (peptide)
# peptide: PGITRV
# notes: synthetic truncated peptide; also called PGITRV
# B22: P3-2 (peptide)
# peptide: VLNLLEL
# notes: synthetic truncated peptide; also called VLNLLEL
# Target: T1, HLA-A2 molecules in T2 cells (human)
# T1 construct: whole, on cells; Target of the HLA-A2 Stabilization Assay; also called MHC class I, HLA-A2; MHC/HLA-A2
# Assay: HLA-A2 stabilization assay on T2 cells, flow cytometry with FITC anti-HLA-A2
row,Binder,binding result
1,B1,no binding (tested: up to 200 uM)
2,B2,no binding (tested: up to 200 uM)
3,B3,no binding (tested: up to 200 uM)
4,B4,no binding (tested: up to 200 uM)
5,B5,no binding (tested: up to 200 uM)

# Target: T1, HLA-A2 molecules in T2 cells
# Assay: HLA-A2 stabilization assay on T2 cells
row,Binder,binding result
1,LIDLPGITR (synthetic truncated peptide) [P14-12],no binding
2,B6,no binding
3,B7,no binding
4,DLPGITRV (synthetic truncated peptide) [P14-3],no binding
5,LVLNLLEL (synthetic truncated peptide) [P3-1],no binding
6,B8,no binding
7,TLVDLPGMTK (synthetic truncated peptide) [P13-6],no binding
8,DLPGMTKV (synthetic truncated peptide) [P13-3],no binding
9,VDLPGMTK (synthetic truncated peptide) [P13-12],no binding
10,LVDLPGMT (synthetic truncated peptide) [P13-11],no binding
11,SLVLNLLE (synthetic truncated peptide) [P3-4],no binding
12,B9,no binding
13,B10,no binding
14,B11,no binding
15,B12,no binding
16,IDLPGITRV (synthetic truncated peptide) [P14-2],no binding
17,B13,no binding
18,B14,no binding

row,Binder,binding result
1,TLVDLPGMT (synthetic truncated peptide) [P13-7],no binding
2,B15,no binding
3,B16,no binding
4,TLIDLPGIT (synthetic truncated peptide) [P14-11],no binding
5,LIDLPGITRV (synthetic truncated peptide) [P14-1],no binding
6,TLIDLPGITR (synthetic truncated peptide) [P14-6],no binding
7,TLVDLPGM (synthetic truncated peptide) [P13-8],no binding
8,VDLPGMTKV (synthetic truncated peptide) [P13-2],no binding
9,TLIDLPGI (synthetic truncated peptide) [P14-8],no binding
10,B17,no binding
11,B18,no binding
12,B19,no binding
13,LIDLPGIT (synthetic truncated peptide) [P14-13],no binding
14,LVDLPGMTKV (synthetic truncated peptide) [P13-1],no binding
15,TLIDLPGIT (synthetic truncated peptide) [P14-7],no binding
16,B20,no binding
17,B21,no binding
18,B22,no binding

# Target: T1, HLA-A2 molecules in T2 cells
# Assay: HLA-A2 stabilization assay on T2 cells
# Remark: another data set of the same source
row,Binder,binding result
1,FMLQTYGQQL (synthetic computer predicted peptide) [P14-18],no binding
